PMC3851519 (Developmental cell, 2013)

Columns and labels:
T7-SOCS6 = molecular target: T1, T7-SOCS6 (UniProt Q9JLY0 1-533); test: pull-down
T1 sequence (looked up): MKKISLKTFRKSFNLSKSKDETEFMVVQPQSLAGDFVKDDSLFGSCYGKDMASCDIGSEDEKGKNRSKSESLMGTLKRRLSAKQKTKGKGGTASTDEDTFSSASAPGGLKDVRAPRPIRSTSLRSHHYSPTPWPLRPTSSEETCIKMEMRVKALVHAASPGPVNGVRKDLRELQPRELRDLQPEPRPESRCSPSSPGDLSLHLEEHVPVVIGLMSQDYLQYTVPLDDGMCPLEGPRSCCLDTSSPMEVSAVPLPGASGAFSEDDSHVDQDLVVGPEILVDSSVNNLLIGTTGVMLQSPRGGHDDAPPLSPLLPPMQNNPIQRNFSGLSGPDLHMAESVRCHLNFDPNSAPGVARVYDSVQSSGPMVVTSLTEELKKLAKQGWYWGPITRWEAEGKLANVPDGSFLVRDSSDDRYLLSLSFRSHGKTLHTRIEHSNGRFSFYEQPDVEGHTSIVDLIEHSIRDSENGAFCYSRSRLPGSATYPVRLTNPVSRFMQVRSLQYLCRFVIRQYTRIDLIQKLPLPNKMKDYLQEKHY

T7-SOCS7 WT = molecular target: T2, T7-SOCS7 WT (UniProt Q8VHQ2 1-579); test: pull-down
T2 sequence (looked up): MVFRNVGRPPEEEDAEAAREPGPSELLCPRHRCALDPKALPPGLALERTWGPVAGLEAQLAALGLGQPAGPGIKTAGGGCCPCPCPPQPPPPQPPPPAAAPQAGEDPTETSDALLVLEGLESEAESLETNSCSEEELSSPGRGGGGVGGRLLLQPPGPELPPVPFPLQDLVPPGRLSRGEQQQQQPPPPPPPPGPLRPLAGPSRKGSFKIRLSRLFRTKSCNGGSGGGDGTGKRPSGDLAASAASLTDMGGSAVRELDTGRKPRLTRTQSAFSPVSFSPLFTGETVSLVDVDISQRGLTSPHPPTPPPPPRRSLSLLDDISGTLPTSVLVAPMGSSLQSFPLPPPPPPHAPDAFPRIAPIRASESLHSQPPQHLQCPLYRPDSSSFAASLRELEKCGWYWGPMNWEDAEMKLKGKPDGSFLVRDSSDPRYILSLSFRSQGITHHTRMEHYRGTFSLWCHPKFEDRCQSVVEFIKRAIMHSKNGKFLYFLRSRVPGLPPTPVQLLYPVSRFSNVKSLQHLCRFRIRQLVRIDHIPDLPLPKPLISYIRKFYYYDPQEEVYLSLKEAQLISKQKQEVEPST

B1: tyrosine-phosphorylated Dab1-EGFP (natural protein, UniProt P97318 1-588, looked up)
chain: MSTETELQVAVKTSAKKDSRKKGQDRSEATLIKRFKGEGVRYKAKLIGIDEVSAARGDKLCQDSMMKLKGVVAGARSKGEHKQKIFLTISFGGIKIFDEKTGALQHHHAVHEISYIAKDITDHRAFGYVCGKEGNHRFVAIKTAQAAEPVILDLRDLFQLIYELKQREELEKKAQKDKQCEQAVYQTILEEDVEDPVYQYIVFEAGHEPIRDPETEENIYQVPTSQKKEGVYDVPKSQPNSQPLEDFESRFAAATPNRNLSMDFDELLEATKVSAVTQLELFGDMSTPPDITSPPTPATPGDAFLPSSSQTLPGSADVFGSMSFGTAAVPSGYVAMGAVLPSFWGQQPLVQQQIAMGAQPPVAQVIPGAQPIAWGQPGLFPATQQAWPTVAGQFPPAAFMPTQTVMPLAAAMFQGPLTPLATVPGTNDSARSSPQSDKPRQKMGKESFKDFQMVQPPPVPSRKPDQPSLTCTSEAFSSYFNKVGVAQDTDDCDDFDISQLNLTPVTSTTPSTNSPPTPAPRQSSPSKSSASHVSDPTADDIFEEGFESPSKSEEQEAPDGSQASSTSDPFGEPSGEPSGDNISPQDGS
modifications: phosphotyrosine (sites not given; phosphorylated by co-transfected Fyn)
- fold pY.Dab1 bound against SOCS4, 5 or CISH (T7-SOCS6): ~10 fold
- fold pY.Dab1 bound against SOCS4, 5 or CISH (T7-SOCS7 WT): ~10 fold
